Reference: article PMC10811338, “2.7 Å cryo-EM structure of human telomerase H/ACA ribonucleoprotein” (Nature Communications, 2024)

B1: dyskerin (natural protein, human (endogenous in HEK293T), UniProt O60832 1-514, looked up)
chain: MADAEVIILPKKHKKKKERKSLPEEDVAEIQHAEEFLIKPESKVAKLDTSQWPLLLKNFDKLNVRTTHYTPLACGSNPLKREIGDYIRTGFINLDKPSNPSSHEVVAWIRRILRVEKTGHSGTLDPKVTGCLIVCIERATRLVKSQQSAGKEYVGIVRLHNAIEGGTQLSRALETLTGALFQRPPLIAAVKRQLRVRTIYESKMIEYDPERRLGIFWVSCEAGTYIRTLCVHLGLLLGVGGQMQELRRVRSGVMSEKDHMVTMHDVLDAQWLYDNHKDESYLRRVVYPLEKLLTSHKRLVMKDSAVNAICYGAKIMLPGVLRYEDGIEVNQEIVVITTKGEAICMAIALMTTAVISTCDHGIVAKIKRVIMERDTYPRKWGLGPKASQKKLMIKQGLLDKHGKPTDSTPATWKQEYVDYSESAKKEVVAEVVKAPQVVAEAAKTAKRKRESESESDETPPAAPQLIKKEKKKSKKDKKAKAGLESGAEPGDGDSDTTKKKKKKKKAKEVELVSE
notes: dyskerin, human, catalytic pseudouridine synthase subunit of H/ACA RNPs; domains NTE, PUA, TruB, CTE; two copies (5’ and 3’) stand in the telomerase H/ACA RNP; residues 1-22 (5’ copy) and 1-42 (3’ copy) are not visible in the map; also called 5’ dyskerin; 3’ dyskerin; source: endogenous, HEK293T cells transfected with TERT and hTR
B2: NHP2 (natural protein, human (endogenous in HEK293T), UniProt Q9NX24 1-153, looked up)
chain: MTKIKADPDGPEAQAEACSGERTYQELLVNQNPIAQPLASRRLTRKLYKCIKKAVKQKQIRRGVKEVQKFVNKGEKGIMVLAGDTLPIEVYCHLPVMCEDRNLPYVYIPSKTDLGAAAGSKRPTCVIMVKPHEEYQEAYDECLEEVQSLPLPL
notes: NHP2, human, core H/ACA protein; two copies (5’ and 3’) stand in the telomerase H/ACA RNP; also called 3’ NHP2; source: HEK293T cells transfected with TERT and hTR

Tests used:
[1] = molecular target: the molecule itself; assay: cryo-EM structure; telomerase-DNA-TPT complex assembled in HEK293T cells and purified as a whole, BS3 cross-linked; H/ACA RNP lobe by signal subtraction; 2.7 Å (semi-closed thumb loop) and 3.1 Å (open thumb loop) reconstructions
TCAB1 = molecular target: T1, TCAB1 (human (endogenous in HEK293T), UniProt Q9BUR4 1-548); assay: as above; settings: both partners purified
T1 construct: TCAB1, human, Cajal body localization factor of the telomerase H/ACA RNP; also called Cajal body localization factor; source: HEK293T cells transfected with TERT and hTR
T1 sequence (Q9BUR4 whole entry): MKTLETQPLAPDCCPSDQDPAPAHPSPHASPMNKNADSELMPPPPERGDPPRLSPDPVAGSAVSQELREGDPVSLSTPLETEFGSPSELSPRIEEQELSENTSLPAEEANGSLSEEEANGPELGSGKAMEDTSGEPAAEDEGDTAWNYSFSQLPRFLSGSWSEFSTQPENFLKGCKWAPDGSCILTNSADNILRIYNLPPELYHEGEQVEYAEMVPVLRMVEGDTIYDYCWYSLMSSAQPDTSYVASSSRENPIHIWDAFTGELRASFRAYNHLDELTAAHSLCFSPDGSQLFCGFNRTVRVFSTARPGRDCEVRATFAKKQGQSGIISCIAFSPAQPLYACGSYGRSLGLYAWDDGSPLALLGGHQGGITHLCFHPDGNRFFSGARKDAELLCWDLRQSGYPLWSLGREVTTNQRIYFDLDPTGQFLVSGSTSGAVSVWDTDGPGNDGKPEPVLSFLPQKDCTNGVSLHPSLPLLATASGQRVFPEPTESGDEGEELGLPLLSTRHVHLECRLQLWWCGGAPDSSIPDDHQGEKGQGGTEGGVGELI

Binder	binding result [1]	binding result (TCAB1)
B1	binds	
B2		binds
